Legend:
[1] = biological target: T1, wild-type KaiC with an N-terminal FLAG epitope (cyanobacteria, UniProt Q79PF4 1-519); experiment: pull-down
T1 sequence: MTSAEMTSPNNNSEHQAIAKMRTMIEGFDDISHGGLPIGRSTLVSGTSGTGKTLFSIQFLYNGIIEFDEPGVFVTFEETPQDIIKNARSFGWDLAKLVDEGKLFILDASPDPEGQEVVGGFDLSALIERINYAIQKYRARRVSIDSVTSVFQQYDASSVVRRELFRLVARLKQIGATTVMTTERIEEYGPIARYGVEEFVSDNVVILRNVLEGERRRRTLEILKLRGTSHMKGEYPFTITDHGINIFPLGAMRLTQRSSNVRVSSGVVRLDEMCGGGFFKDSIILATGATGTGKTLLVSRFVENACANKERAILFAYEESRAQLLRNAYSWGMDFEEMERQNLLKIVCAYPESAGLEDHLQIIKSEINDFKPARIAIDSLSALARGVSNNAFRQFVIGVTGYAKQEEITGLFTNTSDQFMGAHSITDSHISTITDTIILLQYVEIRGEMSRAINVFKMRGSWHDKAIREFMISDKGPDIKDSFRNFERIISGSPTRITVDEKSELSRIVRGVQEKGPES

[2] = biological target: T2, pS KaiC (KaiC-EA; S431E, T432A) (cyanobacteria, UniProt Q79PF4 1-519, S431E | T432A); experiment: pull-down
T2 sequence: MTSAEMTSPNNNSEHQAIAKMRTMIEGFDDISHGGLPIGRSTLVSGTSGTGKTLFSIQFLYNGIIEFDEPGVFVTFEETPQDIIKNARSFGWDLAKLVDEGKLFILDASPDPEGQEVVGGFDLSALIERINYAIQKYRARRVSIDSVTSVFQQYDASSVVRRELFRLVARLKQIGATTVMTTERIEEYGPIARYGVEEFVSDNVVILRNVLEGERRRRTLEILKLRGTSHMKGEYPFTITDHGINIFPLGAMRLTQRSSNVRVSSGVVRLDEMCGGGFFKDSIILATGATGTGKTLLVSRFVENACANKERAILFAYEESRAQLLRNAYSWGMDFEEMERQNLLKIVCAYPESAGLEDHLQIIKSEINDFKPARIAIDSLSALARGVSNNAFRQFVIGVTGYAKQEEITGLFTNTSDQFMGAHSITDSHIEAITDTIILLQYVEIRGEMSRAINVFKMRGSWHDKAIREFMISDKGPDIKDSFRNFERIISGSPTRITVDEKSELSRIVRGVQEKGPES

[3] = biological target: T1, wild-type KaiC with an N-terminal FLAG …; experiment: fluorescence polarisation
[4] = biological target: T3, KaiC, wild type (no FLAG epitope) (cyanobacteria, UniProt Q79PF4 1-519); experiment: fluorescence polarisation
T3 sequence: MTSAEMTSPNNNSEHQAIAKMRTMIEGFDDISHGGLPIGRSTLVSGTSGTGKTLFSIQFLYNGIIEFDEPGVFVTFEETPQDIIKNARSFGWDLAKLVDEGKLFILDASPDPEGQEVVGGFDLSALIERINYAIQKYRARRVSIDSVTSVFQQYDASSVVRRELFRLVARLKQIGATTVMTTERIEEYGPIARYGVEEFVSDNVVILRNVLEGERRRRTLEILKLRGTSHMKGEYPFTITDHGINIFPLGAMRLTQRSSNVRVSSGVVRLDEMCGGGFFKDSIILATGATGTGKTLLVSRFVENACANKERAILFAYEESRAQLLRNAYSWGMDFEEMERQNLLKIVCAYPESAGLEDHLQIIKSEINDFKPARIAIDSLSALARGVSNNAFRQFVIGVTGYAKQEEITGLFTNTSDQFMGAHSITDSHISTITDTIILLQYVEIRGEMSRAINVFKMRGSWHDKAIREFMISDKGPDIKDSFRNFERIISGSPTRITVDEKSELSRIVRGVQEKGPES

Binder	binding result [1]	binding result [2]	binding result [3]	binding result [4]
biotinylated KaiB (natural protein, biotin (amine-reactive EZ-Link-Sulfo-NHS-LC-Biotin, 50 x molar excess; sites not determined)) MSPRKTYILKLYVAGNTPNSVRALKTLKNILEVEFQGVYALKVIDVLKNPQLAEEDKILATPTLAKVLPLPVRRIIGDLSDREKVLIGLDLLYGELQDSDDF	binds	binds	–	–
FITC-labeled KaiB K25C (natural protein, FITC label) MSPRKTYILKLYVAGNTPNSVRALCTLKNILEVEFQGVYALKVIDVLKNPQLAEEDKILATPTLAKVLPLPVRRIIGDLSDREKVLIGLDLLYGELQDSDDF	–	–	binds	binds
